# Measured values reported in the supplement of paper PMC10724198.
# ± gives the standard deviation of the averaged measurements.
# Test system: Saccharomyces cerevisiae
# Test: protein stability index of tFT-peptide fusion (C-terminal peptide) (PSI (0-1 scale)); higher = more stable (slower turnover)
# Conditions: genetic background: wild type; temperature: 30 C
# Method: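 Multiplexed protein stability (MPS) profiling in S. cerevisiae. Random 12-aa peptides (tFT-X12 library) are fused to the C-terminus of a sfGFP-mCherry tandem fluorescent timer, after mCherry and a GGGS linker. Cells are FACS-sorted into 8 mCherry/sfGFP bins and deep-sequenced. The protein stability index (PSI) is the read-weighted bin average, scaled from 0 (unstable) to 1 (stable). Only peptides with >10 reads are reported; cells were grown at 30 °C in SC-His with glucose.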
# 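Further: PSI is a weighted mean of sequencing reads over stability bins, variants kept only with over 10 reads, mCherry proximal and sfGFP distal, peptide attached via GGGS linker.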
row,Sequence,protein stability index
1,FCGACFRGDVLV,0.67 ± 0.017
2,FCGGSWTDGFGW,0.737 ± 0.028
3,FCGLCCDPNRVP,0.708 ± 0.036
4,FCHLGSPATDFR,0.646 ± 0.013
5,FCIRLFLLPLCP,0.5869 ± 0.0055
6,FCLDLLVGLVFL,0.546 ± 0.035
7,FCLGPSLSSSSL,0.714 ± 0.027
8,FCLGWWVAVCGL,0.487 ± 0.04
9,FCPPLAFPPPLS,0.743 ± 0.028
10,FCSMLPSHLPEA,0.6972 ± 0.0027
11,FCYLCARMPYRS,0.662 ± 0.13
12,FDAWSLASASLV,0.741 ± 0.036
13,FDSGLTTHQRDA,0.686 ± 0.029
14,FDSVAVLYSGGV,0.66 ± 0.0078
15,FELEQNCESATS,0.706 ± 0.013
16,FELVEAAYISEE,0.626 ± 0.058
17,FESFHLENRGEK,0.706 ± 0.04
18,FESRDMVGWFGG,0.674 ± 0.019
19,FFCDFFYLSSHF,0.716 ± 0.019
20,FFCILCAHWFPL,0.589 ± 0.086
21,FFFLPSPTFLPP,0.764 ± 0.046
22,FFGCVLRPCLRG,0.72 ± 0.0076
23,FFGYLVDEGLWV,0.738 ± 0.0084
24,FFKNAILFVSCE,0.548 ± 0.049
25,FFLGAPVRQFFF,0.582 ± 0.011
26,FFLLGRGVCLGA,0.663 ± 0.054

row,Sequence,protein stability index
1,FFLRNRPPLCGQ,0.665 ± 0.012
2,FFLSSLFPSFSS,0.796 ± 0.044
3,FFRDDNRDHKRT,0.689 ± 0.017
4,FFSFYPVYPLSA,0.527 ± 0.021
5,FFSLISVFCPYP,0.533 ± 0.065
6,FFWFFFLRFLFS,0.568 ± 0.031
7,FGAGVWVGRVGG,0.649 ± 0.048
8,FGARKVELRWMV,0.53 ± 0.0092
9,FGCLGVLGSGRC,0.728 ± 0.037
10,FGGMSGVLFRMV,0.663 ± 0.054
11,FGLSVSSMSWNL,0.714 ± 0.0078
12,FGLVYCSGLTVS,0.54 ± 0.0079
13,FGSPVGSAGSCF,0.647 ± 0.095
14,FGSVFMSFFLCS,0.522 ± 0.037
15,FGTKHFGGWGGV,0.745 ± 0.015
16,FGVGGAVGWRLR,0.677 ± 0.052
17,FGVVLEGAGGGG,0.702 ± 0.07
18,FHDVVSKKHSLK,0.705 ± 0.032
19,FHLPLSSHDPLL,0.747 ± 0.11
20,FHSLTDSSPPGL,0.649 ± 0.022
21,FIFPPLFFSPVL,0.788 ± 0.13
22,FIGGCYCSVKSL,0.705 ± 0.047
23,FILCFPSLLSSL,0.603 ± 0.022
24,FISEYPQCAALG,0.738 ± 0.078
25,FKSYNNDLQDRI,0.728 ± 0.16
26,FKVILGEFPVAW,0.674 ± 0.0086

row,Sequence,protein stability index
1,FLASPTPSHPRL,0.787 ± 0.091
2,FLDSFCFFPPLP,0.778 ± 0.014
3,FLFKLPPPPRCH,0.678 ± 0.1
4,FLFLFGCSPFFG,0.727 ± 0.057
5,FLIPPPFALPSL,0.717 ± 0.08
6,FLISFCFVGLVL,0.55 ± 0.014
7,FLLIFHSSPLPV,0.574 ± 0.05
8,FLLPPPPRASSF,0.736 ± 0.066
9,FLLRFSPASRAV,0.691 ± 0.019
10,FLLVSLKQCHGR,0.73 ± 0.036
11,FLMDSQGPWICR,0.726 ± 0.076
12,FLPPSVYAHPFP,0.743 ± 0.083
13,FLQHPPHVLHPY,0.7013 ± 0.0069
14,FLRILRLTPRRP,0.728 ± 0.036
15,FLRVVGFVCRWG,0.679 ± 0.025
16,FLRYVLLPSLFV,0.499 ± 0.01
17,FLSFTSLRTKGL,0.743 ± 0.054
18,FLSHRMNMSGLA,0.658 ± 0.016
19,FLSRFLSCLFYF,0.576 ± 0.028
20,FLTSFVDLCGFY,0.682 ± 0.0082
21,FLVFFRRPSRFF,0.5856 ± 0.0058
22,FLVKFYKYPSTR,0.707 ± 0.12
23,FMLRTCFLTTSK,0.718 ± 0.027
24,FMMRPPVSSKVS,0.554 ± 0.0048
25,FNETVLYIVPNG,0.639 ± 0.065
26,FNINRCLEGAHK,0.717 ± 0.035

row,Sequence,protein stability index
1,FNVSNPVSLQTG,0.641 ± 0.021
2,FPCGARPFPLAF,0.704 ± 0.049
3,FPELLFLFSPSF,0.723 ± 0.022
4,FPFGRMNVSGGC,0.701 ± 0.026
5,FPHLAPTTHLLP,0.673 ± 0.1
6,FPLGRCPHIPPH,0.664 ± 0.013
7,FPLSLSFLSPLV,0.705 ± 0.12
8,FPPLCSSSPPLP,0.7131 ± 0.0069
9,FPPRLPPSPPLP,0.666 ± 0.036
10,FPRFACVLPAFH,0.671 ± 0.081
11,FPSPPPPAPLPP,0.763 ± 0.039
12,FPTPPPGPGPPP,0.641 ± 0.03
13,FPTSRAGSLIRR,0.678 ± 0.053
14,FPVARGRHWLSR,0.732 ± 0.12
15,FPVPPFFLSGHL,0.651 ± 0.11
16,FPVPPPPHPPLH,0.675 ± 0.027
17,FPYPFSSSCFSS,0.651 ± 0.062
18,FQGPPFKHVNSV,0.701 ± 0.059
19,FQIRGFFGLMAD,0.754 ± 0.046
20,FRASLFFVWLPS,0.59 ± 0.085
21,FRGGLLSLSAWV,0.699 ± 0.02
22,FRGRSSLSTSCG,0.69 ± 0.023
23,FRHSSAVLAPGV,0.6896 ± 0.0057
24,FRLPMIRVCWSL,0.569 ± 0.025
25,FRPCPLNSLSRY,0.724 ± 0.021
26,FRPFLPPSRTFS,0.676 ± 0.008

row,Sequence,protein stability index
1,FRPLPFYRLSPP,0.727 ± 0.021
2,FRPLVDVKFPRY,0.658 ± 0.13
3,FRPNPCLSPCSA,0.643 ± 0.1
4,FRSENSWLLCSW,0.786 ± 0.048
5,FRSPRLSPSFFF,0.717 ± 0.027
6,FRSTKELLQLGR,0.664 ± 0.055
7,FRVSVRTVSSLR,0.654 ± 0.037
8,FSELTGFMSVRG,0.652 ± 0.025
9,FSFARFFSWSFS,0.694 ± 0.13
10,FSFFQFSASFFL,0.699 ± 0.039
11,FSGFGERFMISS,0.6917 ± 0.0033
12,FSGRGSSPVAVF,0.544 ± 0.035
13,FSHLLPAESPYP,0.654 ± 0.086
14,FSKDDFEVTPNS,0.819 ± 0.079
15,FSLLPYFPYALP,0.739 ± 0.089
16,FSLVHSFRLSFC,0.599 ± 0.012
17,FSMAHLDGGHRR,0.676 ± 0.013
18,FSRAPHFSGRLC,0.502 ± 0.0087
19,FSSCPPFRPFPL,0.787 ± 0.04
20,FSSTCLSSRFAI,0.684 ± 0.07
21,FSVDASLPLSSV,0.6749 ± 0.0063
22,FSVPLMLTFPRD,0.721 ± 0.054
23,FSVSLACYPSMC,0.698 ± 0.075
24,FTCRRYVGFMGG,0.798 ± 0.025
25,FTGAVGPCTCRY,0.731 ± 0.023
26,FTSLCLLFLFSL,0.616 ± 0.085

row,Sequence,protein stability index
1,FTSRGLLILGFM,0.619 ± 0.008
2,FTTAGSGWESVW,0.636 ± 0.041
3,FVASRFLRCLVL,0.495 ± 0.017
4,FVFQYVVGNFAI,0.617 ± 0.051
5,FVISRPRLHSFC,0.5663 ± 0.0032
6,FVLGGLHAGYVL,0.7146 ± 0.0038
7,FVLRCLGLVLPV,0.593 ± 0.077
8,FVLRFRGMRPSN,0.673 ± 0.019
9,FVLRFVLSLVFF,0.494 ± 0.083
10,FVPLFVFSCSRS,0.5 ± 0.014
11,FVSLEVLFISSL,0.5609 ± 0.0016
12,FVVGGGLRMGAG,0.62253 ± 0.00043
13,FVVLALKESFSV,0.605 ± 0.057
14,FWCMLLAPFVNV,0.657 ± 0.11
15,FWDSCAVSLYLR,0.632 ± 0.041
16,FWVASREVGRAY,0.608 ± 0.041
17,FYRPGNVLDGVF,0.705 ± 0.075
18,GAARTPGRARTL,0.685 ± 0.049
19,GACCRHERIREE,0.761 ± 0.084
20,GACGSTLPASSR,0.668 ± 0.058
21,GADGARGVPGAG,0.662 ± 0.018
22,GADGYSCGLVIT,0.539 ± 0.11
23,GAENPRRLRART,0.691 ± 0.0079
24,GAGEGAQEDPAS,0.705 ± 0.013
25,GAGLPSGLRIGL,0.647 ± 0.025
